# Numbered stars: 1 amine (or outer) side, 2 acyl side, 3 side chain; on linkers, the order of the positions; unused ones are H or OH. Side chains are listed from the residue outwards. Ends that are not written are not given here. * marks the point of attachment. γGlu = O=C(O)[C@H](CCC(=O)[*:2])N[*:1]; Palmitoyl = CCCCCCCCCCCCCCCC(=O)*; Ahx = NCCCCCC(=O)O; βAla = NCCC(=O)O
# T1: human glucose-dependent insulinotropic peptide (gastric inhibitory polypeptide) receptor (human) (UniProt P48546)
# T1 sequence (looked up): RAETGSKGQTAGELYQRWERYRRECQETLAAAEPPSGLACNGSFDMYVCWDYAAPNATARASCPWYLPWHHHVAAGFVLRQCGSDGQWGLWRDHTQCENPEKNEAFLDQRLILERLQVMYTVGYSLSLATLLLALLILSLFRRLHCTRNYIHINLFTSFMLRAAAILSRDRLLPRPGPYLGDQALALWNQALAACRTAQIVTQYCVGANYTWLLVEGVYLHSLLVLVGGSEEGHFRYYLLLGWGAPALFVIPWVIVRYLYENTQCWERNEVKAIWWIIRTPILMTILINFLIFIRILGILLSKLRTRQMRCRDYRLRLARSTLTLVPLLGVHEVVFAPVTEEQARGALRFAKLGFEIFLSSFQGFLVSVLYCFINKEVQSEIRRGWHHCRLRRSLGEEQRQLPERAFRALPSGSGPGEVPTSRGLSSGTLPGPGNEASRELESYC
# B1: g724 (peptide)
# peptide: HGEGTFTSDYSEYLDSK([Ahx-Palmitoyl])RARDFVAWLERGG-NH2
# modifications: N-terminus assumed
# SMILES: CCCCCCCCCCCCCCCC(=O)NCCCCCC(=O)NCCCC[C@H](NC(=O)[C@H](CO)NC(=O)[C@H](CC(=O)O)NC(=O)[C@H](CC(C)C)NC(=O)[C@H](Cc1ccc(O)cc1)NC(=O)[C@H](CCC(=O)O)NC(=O)[C@H](CO)NC(=O)[C@H](Cc1ccc(O)cc1)NC(=O)[C@H](CC(=O)O)NC(=O)[C@H](CO)NC(=O)[C@@H](NC(=O)[C@H](Cc1ccccc1)NC(=O)[C@@H](NC(=O)CNC(=O)[C@H](CCC(=O)O)NC(=O)CNC(=O)[C@@H](N)Cc1c[nH]cn1)[C@@H](C)O)[C@@H](C)O)C(=O)N[C@@H](CCCNC(=N)N)C(=O)N[C@@H](C)C(=O)N[C@@H](CCCNC(=N)N)C(=O)N[C@@H](CC(=O)O)C(=O)N[C@@H](Cc1ccccc1)C(=O)N[C@H](C(=O)N[C@@H](C)C(=O)N[C@@H](Cc1c[nH]c2ccccc12)C(=O)N[C@@H](CC(C)C)C(=O)N[C@@H](CCC(=O)O)C(=O)N[C@@H](CCCNC(=N)N)C(=O)NCC(=O)NCC(N)=O)C(C)C
# B2: g725 (peptide)
# peptide: HGEGTFTSDYSEYLDSK([Ahx-Palmitoyl])RAADFVAWLERGG-NH2
# modifications: N-terminus assumed
# SMILES: CCCCCCCCCCCCCCCC(=O)NCCCCCC(=O)NCCCC[C@H](NC(=O)[C@H](CO)NC(=O)[C@H](CC(=O)O)NC(=O)[C@H](CC(C)C)NC(=O)[C@H](Cc1ccc(O)cc1)NC(=O)[C@H](CCC(=O)O)NC(=O)[C@H](CO)NC(=O)[C@H](Cc1ccc(O)cc1)NC(=O)[C@H](CC(=O)O)NC(=O)[C@H](CO)NC(=O)[C@@H](NC(=O)[C@H](Cc1ccccc1)NC(=O)[C@@H](NC(=O)CNC(=O)[C@H](CCC(=O)O)NC(=O)CNC(=O)[C@@H](N)Cc1c[nH]cn1)[C@@H](C)O)[C@@H](C)O)C(=O)N[C@@H](CCCNC(=N)N)C(=O)N[C@@H](C)C(=O)N[C@@H](C)C(=O)N[C@@H](CC(=O)O)C(=O)N[C@@H](Cc1ccccc1)C(=O)N[C@H](C(=O)N[C@@H](C)C(=O)N[C@@H](Cc1c[nH]c2ccccc12)C(=O)N[C@@H](CC(C)C)C(=O)N[C@@H](CCC(=O)O)C(=O)N[C@@H](CCCNC(=N)N)C(=O)NCC(=O)NCC(N)=O)C(C)C
# B3: g726 (peptide)
# peptide: HGEGTFTSDYSEYLDSK([Ahx-Palmitoyl])RARDFVEWLERGG-NH2
# modifications: N-terminus assumed
# SMILES: CCCCCCCCCCCCCCCC(=O)NCCCCCC(=O)NCCCC[C@H](NC(=O)[C@H](CO)NC(=O)[C@H](CC(=O)O)NC(=O)[C@H](CC(C)C)NC(=O)[C@H](Cc1ccc(O)cc1)NC(=O)[C@H](CCC(=O)O)NC(=O)[C@H](CO)NC(=O)[C@H](Cc1ccc(O)cc1)NC(=O)[C@H](CC(=O)O)NC(=O)[C@H](CO)NC(=O)[C@@H](NC(=O)[C@H](Cc1ccccc1)NC(=O)[C@@H](NC(=O)CNC(=O)[C@H](CCC(=O)O)NC(=O)CNC(=O)[C@@H](N)Cc1c[nH]cn1)[C@@H](C)O)[C@@H](C)O)C(=O)N[C@@H](CCCNC(=N)N)C(=O)N[C@@H](C)C(=O)N[C@@H](CCCNC(=N)N)C(=O)N[C@@H](CC(=O)O)C(=O)N[C@@H](Cc1ccccc1)C(=O)N[C@H](C(=O)N[C@@H](CCC(=O)O)C(=O)N[C@@H](Cc1c[nH]c2ccccc12)C(=O)N[C@@H](CC(C)C)C(=O)N[C@@H](CCC(=O)O)C(=O)N[C@@H](CCCNC(=N)N)C(=O)NCC(=O)NCC(N)=O)C(C)C
# B4: g727 (peptide)
# peptide: HGQGTFTSDYSEYLDSK([Ahx-Palmitoyl])RARDFVAWLERGG-OH
# modifications: N-terminus assumed
# SMILES: CCCCCCCCCCCCCCCC(=O)NCCCCCC(=O)NCCCC[C@H](NC(=O)[C@H](CO)NC(=O)[C@H](CC(=O)O)NC(=O)[C@H](CC(C)C)NC(=O)[C@H](Cc1ccc(O)cc1)NC(=O)[C@H](CCC(=O)O)NC(=O)[C@H](CO)NC(=O)[C@H](Cc1ccc(O)cc1)NC(=O)[C@H](CC(=O)O)NC(=O)[C@H](CO)NC(=O)[C@@H](NC(=O)[C@H](Cc1ccccc1)NC(=O)[C@@H](NC(=O)CNC(=O)[C@H](CCC(N)=O)NC(=O)CNC(=O)[C@@H](N)Cc1c[nH]cn1)[C@@H](C)O)[C@@H](C)O)C(=O)N[C@@H](CCCNC(=N)N)C(=O)N[C@@H](C)C(=O)N[C@@H](CCCNC(=N)N)C(=O)N[C@@H](CC(=O)O)C(=O)N[C@@H](Cc1ccccc1)C(=O)N[C@H](C(=O)N[C@@H](C)C(=O)N[C@@H](Cc1c[nH]c2ccccc12)C(=O)N[C@@H](CC(C)C)C(=O)N[C@@H](CCC(=O)O)C(=O)N[C@@H](CCCNC(=N)N)C(=O)NCC(=O)NCC(=O)O)C(C)C
# B5: g326 (peptide)
# peptide: HSQGTFTSDYSKYLDSRRAQDFVQWLVAGGGGGGK(Palmitoyl)-NH2
# modifications: N-terminus assumed
# SMILES: CCCCCCCCCCCCCCCC(=O)NCCCC[C@H](NC(=O)CNC(=O)CNC(=O)CNC(=O)CNC(=O)CNC(=O)CNC(=O)[C@H](C)NC(=O)[C@@H](NC(=O)[C@H](CC(C)C)NC(=O)[C@H](Cc1c[nH]c2ccccc12)NC(=O)[C@H](CCC(N)=O)NC(=O)[C@@H](NC(=O)[C@H](Cc1ccccc1)NC(=O)[C@H](CC(=O)O)NC(=O)[C@H](CCC(N)=O)NC(=O)[C@H](C)NC(=O)[C@H](CCCNC(=N)N)NC(=O)[C@H](CCCNC(=N)N)NC(=O)[C@H](CO)NC(=O)[C@H](CC(=O)O)NC(=O)[C@H](CC(C)C)NC(=O)[C@H](Cc1ccc(O)cc1)NC(=O)[C@H](CCCCN)NC(=O)[C@H](CO)NC(=O)[C@H](Cc1ccc(O)cc1)NC(=O)[C@H](CC(=O)O)NC(=O)[C@H](CO)NC(=O)[C@@H](NC(=O)[C@H](Cc1ccccc1)NC(=O)[C@@H](NC(=O)CNC(=O)[C@H](CCC(N)=O)NC(=O)[C@H](CO)NC(=O)[C@@H](N)Cc1c[nH]cn1)[C@@H](C)O)[C@@H](C)O)C(C)C)C(C)C)C(N)=O
# Biological target: T1, human glucose-dependent insulinotropic peptide (gastric inhibitory polypeptide) receptor (human)
# Assay: cell-based or functional assay
row,Binder,cAMP EC50 (assay 1) [nM]
1,HSQGTFTSDYSKYLDSRRAQDFVQWLVAGGKNNRNNIAK-NH2 [g321],6.41
2,HSQGTFTSDYSEYLDSK([Ahx-Palmitoyl])RAADFVAWLERGG-NH2 (not fully specified) [g818],94
3,HSQGTFTSDYSEYLDSK([Ahx-Palmitoyl])RARDFVAWLERGG-NH2 (not fully specified) [g794],32.2
4,HSQGTFTSDYSEYLDSK([Ahx-Palmitoyl])RARDFVAWLERGG-OH (not fully specified) [g826],58
5,HSQGTFTSDYSEYLDSK([γGlu-Palmitoyl])RARDFVAWLERGG-NH2 (not fully specified) [g772],1540
6,B1,933
7,B2,1480
8,B3,215
9,HSQGTFTSDYSKYLDSRRAQDFVQWLVAGGGGGGK([γGlu-Palmitoyl])-NH2 [g327],12.8
10,HSQGTFTSDYSKYLDSRAAQK([Ahx-Palmitoyl])FVQWLERGG-NH2 (not fully specified) [g806],105
11,B4,177
12,HSQGTFTSDYSKYLDSRRAQDFVQWLVAGGGGGG-NH2 [g315],19.7
13,HSQGTFTSDYSEYLDSK([βAla-Palmitoyl])RARDFVAWLERGG-NH2 (not fully specified) [g795],579
14,HSQGTFTSDYSEYLDSK([Ahx-Palmitoyl])RARDFVEWLERGG-NH2 (not fully specified) [g771],37.1
15,B5,12.6
16,HSQGTFTSDYSKYLDSRRAQDFVQWLVAGGSSGGSS-NH2 [g316],3.65

# Biological target: human glucagon receptor (human, UniProt P47871 26-477)
# Assay: cell-based or functional assay
# Sequence of human glucagon receptor (P47871 26-477): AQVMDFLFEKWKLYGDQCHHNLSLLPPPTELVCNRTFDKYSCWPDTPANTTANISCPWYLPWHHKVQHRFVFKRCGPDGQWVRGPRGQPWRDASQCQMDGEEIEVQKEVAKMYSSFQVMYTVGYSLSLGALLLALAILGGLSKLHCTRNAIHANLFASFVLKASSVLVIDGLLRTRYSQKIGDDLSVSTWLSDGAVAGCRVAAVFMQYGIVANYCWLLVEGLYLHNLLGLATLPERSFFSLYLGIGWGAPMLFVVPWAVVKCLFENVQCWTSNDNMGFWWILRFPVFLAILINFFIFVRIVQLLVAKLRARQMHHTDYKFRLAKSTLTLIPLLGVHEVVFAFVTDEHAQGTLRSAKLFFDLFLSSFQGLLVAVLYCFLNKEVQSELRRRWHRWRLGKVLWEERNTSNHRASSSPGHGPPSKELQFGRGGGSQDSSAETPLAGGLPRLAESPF
row,Binder,cAMP EC50 (assay 1) [nM]
1,HSQGTFTSDYSKYLDSRRAQDFVQWLVAGGKNNRNNIAK-NH2 [g321],0.0279
2,HSQGTFTSDYSEYLDSK([Ahx-Palmitoyl])RAADFVAWLERGG-NH2 (not fully specified) [g818],0.0089
3,HSQGTFTSDYSEYLDSK([Ahx-Palmitoyl])RARDFVAWLERGG-NH2 (not fully specified) [g794],0.00469
4,HSQGTFTSDYSEYLDSK([Ahx-Palmitoyl])RARDFVAWLERGG-OH (not fully specified) [g826],0.00423
5,HSQGTFTSDYSEYLDSK([γGlu-Palmitoyl])RARDFVAWLERGG-NH2 (not fully specified) [g772],0.184
6,B1,30.9
7,B2,59.9
8,B3,13.1
9,HSQGTFTSDYSKYLDSRRAQDFVQWLVAGGGGGGK([γGlu-Palmitoyl])-NH2 [g327],0.00232
10,HSQGTFTSDYSKYLDSRAAQK([Ahx-Palmitoyl])FVQWLERGG-NH2 (not fully specified) [g806],0.0099
11,B4,0.218
12,HSQGTFTSDYSKYLDSRRAQDFVQWLVAGGGGGG-NH2 [g315],0.00504
13,HSQGTFTSDYSEYLDSK([βAla-Palmitoyl])RARDFVAWLERGG-NH2 (not fully specified) [g795],0.11
14,HSQGTFTSDYSEYLDSK([Ahx-Palmitoyl])RARDFVEWLERGG-NH2 (not fully specified) [g771],0.00551
15,B5,0.00282
16,HSQGTFTSDYSKYLDSRRAQDFVQWLVAGGSSGGSS-NH2 [g316],0.0106

# Biological target: human GLP-1 receptor (human, UniProt P43220 24-463)
# Assay: cell-based or functional assay
# Sequence of human GLP-1 receptor (P43220 24-463): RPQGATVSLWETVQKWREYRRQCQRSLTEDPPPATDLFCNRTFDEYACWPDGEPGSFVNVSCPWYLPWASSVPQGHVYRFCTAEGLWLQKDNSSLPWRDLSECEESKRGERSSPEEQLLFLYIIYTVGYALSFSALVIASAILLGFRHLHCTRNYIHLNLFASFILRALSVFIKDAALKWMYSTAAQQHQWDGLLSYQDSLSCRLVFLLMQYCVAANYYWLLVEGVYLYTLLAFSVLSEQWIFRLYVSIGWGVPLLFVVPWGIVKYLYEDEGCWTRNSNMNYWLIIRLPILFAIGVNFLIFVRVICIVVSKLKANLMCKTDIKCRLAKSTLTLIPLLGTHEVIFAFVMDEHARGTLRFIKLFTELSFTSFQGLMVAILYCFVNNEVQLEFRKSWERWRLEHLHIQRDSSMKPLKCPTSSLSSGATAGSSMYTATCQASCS
row,Binder,cAMP EC50 (assay 1) [nM]
1,HSQGTFTSDYSKYLDSRRAQDFVQWLVAGGKNNRNNIAK-NH2 [g321],0.0272
2,HSQGTFTSDYSEYLDSK([Ahx-Palmitoyl])RAADFVAWLERGG-NH2 (not fully specified) [g818],0.021
3,HSQGTFTSDYSEYLDSK([Ahx-Palmitoyl])RARDFVAWLERGG-NH2 (not fully specified) [g794],0.0157
4,HSQGTFTSDYSEYLDSK([Ahx-Palmitoyl])RARDFVAWLERGG-OH (not fully specified) [g826],0.0293
5,HSQGTFTSDYSEYLDSK([γGlu-Palmitoyl])RARDFVAWLERGG-NH2 (not fully specified) [g772],0.292
6,B1,0.019
7,B2,0.0252
8,B3,0.00791
9,HSQGTFTSDYSKYLDSRRAQDFVQWLVAGGGGGGK([γGlu-Palmitoyl])-NH2 [g327],0.0193
10,HSQGTFTSDYSKYLDSRAAQK([Ahx-Palmitoyl])FVQWLERGG-NH2 (not fully specified) [g806],0.171
11,B4,0.0263
12,HSQGTFTSDYSKYLDSRRAQDFVQWLVAGGGGGG-NH2 [g315],0.0273
13,HSQGTFTSDYSEYLDSK([βAla-Palmitoyl])RARDFVAWLERGG-NH2 (not fully specified) [g795],0.0734
14,HSQGTFTSDYSEYLDSK([Ahx-Palmitoyl])RARDFVEWLERGG-NH2 (not fully specified) [g771],0.0175
15,B5,0.0247
16,HSQGTFTSDYSKYLDSRRAQDFVQWLVAGGSSGGSS-NH2 [g316],0.0314

# From patent US20190185537A1 (AstraZeneca / MedImmune, published 2019)
